Assay results from patent publication US20240093191A1, “COMPOSITIONS AND METHODS FOR TREATING DISEASE ASSOCIATED WITH DUX4 OVEREXPRESSION” (RESEARCH INSTITUTE AT NATIONWIDE CHILDREN'S HOSPITAL, priority 2021, published 2024).

Tests used:
Format in all cases: cell-based, human
[1] = system: mir-675R (reverse complementary sequence of mir-675-5p); assay: Dual-luciferase assay with mir-675 perfect target site (mir-675R) as Renilla 3'UTR; settings: mir-675R perfect target site; normalized to milacZ
From the text: The QPCR was done using the Taqman probes designed to recognize the mature sequence of mir-675-5p and -3p. mir-675-3p expression was 2.20±0.15-fold higher than that of mir-675-5p (P<0.0001, ANOVA, N=3). Gene expression was normalized to the housekeeping gene RPL13A. Results were reported as the average relative gene expression±SEM of three replicates (N=3). […] The miRNA (pmoles) was used at 40-fold of the RenLuc-DUX4-FL (pmoles). When testing the U6.mir-675-3p construct, the relative Renilla luciferase kept on average 95% (P<0.2, ANOVA) of its activity, even though U6.mir-675-3p expressed high levels of mir-675-3p relative to the negative control mir-675-5p levels. On the other hand, U6.mir-675-5p was able to reduce the relative Renilla luciferase activity on average by 33±3% (P<0.0001, ANOVA, N=3). All readings were normalized to the milacZ negative control. Results were reported as the average relative Renilla luciferase activity±SEM of three replicates (N=3). […] This sequence was cloned as a 3′UTR downstream the Renilla luciferase gene. […] All readings were normalized to the milacZ negative control. […]
Dual Luciferase Assay. […] Luciferase activity was measured 24h or 48h after transfection. DUX4 gene silencing was determined as previously described [Wallace et al., Mol. Ther. Methods Clin. Dev. […]

mir-675-5p = assay: TaqMan QRT-PCR of mature mir-675-5p from transfected constructs in HEK293 cells
From the text: (§1) RNA Extraction. RNA from HEK293 cells was extracted for Northern blot assay and QPCR. The miRVANA miRNA isolation kit (ThermoFisher Scientific) was used according to manufacturer's directions to extract total RNA encompassing small RNAs, such as miRNAs. To extract RNA from C57BL/6 skeletal muscles, cryopreserved muscles were crushed under suboptimal temperatures using liquid nitrogen and using mortar and pestle. Crushed muscles were then lysed using […] of miRVANA miRNA isolation kit lysis buffer, a TissueLyser and 1.0 mm zirconia beads (Biospec). Muscle was homogenized at 30 Hz for 30 sec with 10 sec rest. This was repeated 3 times.
(§2) TaqMan Gene Expression Assay. QRT-PCR was carried out to quantify the expression of pri-mir-675, mir-675-5p and mi405 using TaqMan probes (ThermoFisher Scientific). Experiments were started by eliminating genomic DNA from the RNA preparations, and then cDNA was generated using the High-Capacity cDNA Reverse Transcription Kit (Applied Biosystems) following manufacturer's instructions. Within the same cDNA reaction, 1×RT random hexamer primers were used to generate the cDNA for RPL13A, used as a reference gene, and for pri-mir-675. To generate the cDNA for mir-675, the RT mir-675 reverse primer provided by ThermoFisher Scientific was used. For mi405, the mi405 qPCR protocol was done as it was previously described [Wallace et al., Mol. Ther. Methods Clin. Dev. 8: 121-30 (2018)]. To quantify mir-675 and mi405 levels, RNA was extracted using the total RNA protocol for the mirVana miRNA Isolation Kit (Ambion) from HEK293 cells. cDNA was generated using the High-Capacity cDNA Reverse Transcription Kit (Applied Biosystems) using a mix of random hexamer primers and specific reverse primer for pri-mir-675 and mir-675-5p. For mi405, 200 nM of the stem-loop forming primer (5′-[…]-3′) (SEQ ID NO: 144) was also used for the RT step. A custom TaqMan assay (Applied Biosystems) including 1.5 μM of Forward primer (5′-[…]-3′) (SEQ ID NO: 145), 0.7 μM of Reverse primer (5′-GTGCAGGGTCCGAGGT-3′) (SEQ ID NO: 146), and 0.2 μM of mi405 probe (5′-6FAM-ATACGACGTCCAGGAT-3′) (SEQ ID NO: 147) was then run using the CFX Connect Real Time system apparatus (Bio-Rad). RPL13A (Mm02526700_g1; Applied Biosystems) served as the reference gene. The TaqMan gene expression assay consisted of using the TaqMan Gene Expression Master mix and TaqMan probes purchased from ThermoFisher Scientific. 1× of probe was mixed with 1× of the TaqMan Gene Expression Master mix (ThermoFisher Scientific), and with 20 ng of cDNA. The mir-675- and mi405-specific primers and probes were designed to quantify only the mir-675-5p and mi405 mature sequence (see TaqMan Gene Expression Master mix protocol).

pri-mir-675 = assay: TaqMan QRT-PCR of pri-mir-675 from transfected constructs in HEK293 cells; settings: 24 h post-transfection
From the text: as §1, §2

B1: U6.mir-675: U6 promoter-driven mir-675 expression plasmid with 40 nt 5' and 47 nt 3' flanking sequences (nucleic acid)
DNA: GACGCCGCCATCTCTAGGCCCGCGCCGGCCCCCTCGCACAGACTTGTGGGAGAAGCTCGGCTACTCCCCTGCCCCGGTTAATTTGCATATAATATTTCCTAGTAACTATAGAGGCTTAATGTGCGATAAAAGACAGATAATCTGTTCTTTTTAATACTAGCTACATTTTACATGATAGGCTTGGATTTCTATAAGAGATACAAATACTAAATTATTATTTTAAAAAACAGCACAAAAGGAAACTCACCCTAACTGTAAAGTAATTGTGTGTTTTGAGACTATAAATATCCCTTGGAGAAAAGCCTTGTTTGCGTTTAGTGAACCGTCAGATGGTACCGTTTAAACTCGAGCCCAGGGTCTGGTGCGGAGAGGGCCCACAGTGGACTTGGTGACGCTGTATGCCCTCACCGCTCAGCCCCTGGGACTAGAGCGGCCGCCACAGCGGGGAGATCCAGACATGATAAGATACATTTTTT
With B1 the “reduction of relative Renilla luciferase activity (maximum inhibition)” value [1] was 41±12%.

B2: H1.mir-675: commercially available H1 promoter mir-675 expression plasmid (SBI Biosciences) (nucleic acid)
DNA: GAACGCTGACGTCATCAACCCGCTCCAAGGAATCGCGGGCCCAGTGTCACTAGGCGGGAACACCCAGCGCGCGTGCGCCCTGGCAGGAAGATGGCTGTGAGGGACAGGGGAGTGGCGCCCTGCAATATTTGCATGTCGCTATGTGTTCTGGGAAATCACCATAAACGTGAAATGTCTTTGGATTTGGGAATCTTATAAGTTCTGTATGAGACCACCCCCCAGGGTCTGGTGCGGAGAGGGCCCACAGTGGACTTGGTGACGCTGTATGCCCTCACCGCTCAGCCCCTGGGGAATTCTTCGATTCTGCTTTTTT
With B2 the “mir-675-5p levels compared to U6.mir-675” value (mir-675-5p; 23 mer mature mir-675-5p, HEK293, 24 h post-transfection) was 232±35%, the “mir-675-5p overexpressed levels compared to milacZ sample” value (mir-675-5p; HEK293 co-transfected with CMV.DUX4-FL/CMV.eGFP) was ~2000 fold and the “pri-mir-675 levels compared to U6.mir-675” value (pri-mir-675) was 320±43%.
